These results are taken from PMC3934309.

For the assay, the target named is DsbC-MPK4 fusion (construct pT7-DsbC-MPK4) (E. coli | Leishmania major) (UniProt P0AEG6). Kind of assay: SEC; analytical size exclusion chromatography of the IMAC purified fraction of the uncleaved DsbC-MPK4 fusion; peak at 8.4 ml; apparent molecular weight.

Consider “DsbC-MPK4 fusion (construct pT7-DsbC-MPK4) (from UniProt P0AEG6 21-236; Q4QD66 1-363)”, for which the stoichiometry N was 10.
